According to article PMC5525514 (Journal of biomolecular screening, 2011):

T1: Gαo–RGS17 interaction (Homo sapiens, UniProt Q9UGC6)
T1 sequence (Q9UGC6 61-210 limits assumed): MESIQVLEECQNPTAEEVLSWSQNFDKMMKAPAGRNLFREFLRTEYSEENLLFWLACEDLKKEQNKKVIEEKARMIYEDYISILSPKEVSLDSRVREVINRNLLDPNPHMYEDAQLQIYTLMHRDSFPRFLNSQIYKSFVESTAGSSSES

B1: 6x-His-tagged Gαo, not biotinylated (free Gαo) (natural protein, UniProt P59215 1-354, looked up)
chain: MGCTLSAEERAALERSKAIEKNLKEDGISAAKDVKLLLLGAGESGKSTIVKQMKIIHEDGFSGEDVKQYKPVVYSNTIQSLAAIVRAMDTLGVEYGDKERKADSKMVCDVVSRMEDTEPFSAELLSAMMRLWGDSGIQECFNRSREYQLNDSAKYYLDSLDRIGAADYQPTEQDILRTRVKTTGIVETHFTFKNLHFRLFDVGGQRSERKKWIHCFEDVTAIIFCVALSGYDQVLHEDETTNRMHESLMLFDSICNNKFFIDTSIILFLNKKDLFGEKIKKSPLTICFPEYPGSNTYEDAAAYIQTQFESKNRSPNKEIYCHMTCATDTNNIQVVFDAVTDIIIANNLRGCGLY
B2: free Gαo: un-biotinylated Gαo protein used as competitor in the AlphaScreen competition binding assay (protein)
chain: B1 chain
modifications: left off: His6, end not stated, state not stated
B3: GST-RGS17 (human RGS17 with an N-terminal glutathione-S-transferase and a C-terminal 6xHis tag) (domain or fragment, UniProt Q9UGC6 61-210, looked up)
chain: T1 sequence (Q9UGC6 61-210 limits assumed)

What was measured:
[1] = biological target: B3; test: AlphaScreen or HTRF
Gαo–RGS17 interaction = biological target: T1, Gαo–RGS17 interaction; test: AlphaScreen competition binding with free Gαo
[2] = biological target: biotinylated 6x-His-tagged Gαo (UniProt P59215 1-354, biotin (EZ-Link Biotin-BMCC, maleimide chemistry, labeled at a 10:1 biotin/protein ratio)); test: AlphaScreen or HTRF

Molecule: B1
IC50 [1]: 46 ± 1.1 nM

Molecule: B2
Hill slope (Gαo–RGS17 interaction): −1.3

Molecule: B3
Kd [2]: 29.2 ± 4.4 nM
